Assay results reported in patent publication USRE47150 (Bayer, dated 2018).
Changes are numbered by the printed parent chain. Names may count otherwise.

T1: human tissue factor pathway inhibitor (TFPI) (human, UniProt P10646 29-304, limits assumed)
T1 construct: bought; also called hTFPI; human TFPI
T1 sequence (looked up): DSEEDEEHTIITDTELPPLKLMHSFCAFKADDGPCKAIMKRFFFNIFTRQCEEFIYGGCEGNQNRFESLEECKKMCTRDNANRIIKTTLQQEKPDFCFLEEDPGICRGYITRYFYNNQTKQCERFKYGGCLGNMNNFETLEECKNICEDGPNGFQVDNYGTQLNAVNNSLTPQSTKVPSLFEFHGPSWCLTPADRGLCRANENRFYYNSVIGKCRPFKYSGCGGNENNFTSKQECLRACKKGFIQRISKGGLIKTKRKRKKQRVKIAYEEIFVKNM

T2: mouse tissue factor pathway inhibitor (TFPI) (mouse, UniProt O54819 29-289, limits assumed)
T2 construct: bought; also called mTFPI; murine TFPI
T2 sequence (looked up): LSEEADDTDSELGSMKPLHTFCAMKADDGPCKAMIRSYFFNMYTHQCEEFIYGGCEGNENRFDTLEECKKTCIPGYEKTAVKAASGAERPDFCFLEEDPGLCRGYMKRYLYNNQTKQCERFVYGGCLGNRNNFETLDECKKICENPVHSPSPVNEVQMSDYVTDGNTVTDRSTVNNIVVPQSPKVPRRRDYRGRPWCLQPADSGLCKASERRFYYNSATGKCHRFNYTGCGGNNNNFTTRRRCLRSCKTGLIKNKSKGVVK

B1: 2A8 HC S35D+S55R+K99L/LC N29K+Y48F+N51V+D91W (Fab, V domains shown)
VH: QVQLVESGGGLVQPGGSLRLSCAASGFTFRSYGMDWVRQAPGKGLEWVSSIRGSRSSTYYADSVKGRFTISRDNSKNTLYLQMNSLRAEDTAVYYCARLYRYWFDYWGQGTLVTVSS
VL: DIELTQPPSVSVAPGQTARISCSGDNLRKYYAHWYQQKPGQAPVVVIFYDVNRPSGIPERFSGSNSGNTATLTISGTQAEDEADYYCQSWWDGVPVFGGGTKLTVLG
B2: 2A8 HC S31V+I51D+S55R+K99V/LC D1S+I2Y+A13S+S21T+R28P+N29K+Y48F+E80M+D91L+D92S+V94T+V96W (Fab, V domains shown)
VH: B1 VH with S31V, D35S, I51D, L99V
VL: SYELTQPPSVSVSPGQTARITCSGDNLPKYYAHWYQQKPGQAPVVVIFYDNNRPSGIPERFSGSNSGNTATLTISGTQAMDEADYYCQSWLSGTPWFGGGTKLTVLG
B3: 2A8 HC S31V+I51D+S55R+K99V/LC D1S+I2Y+A13S+S21T+R28P+N29K+Y48F+Y49R+N51S+E80M+D91L+D92S+V94T+V96W (Fab, V domains shown)
VH: B1 VH with S31V, D35S, I51D, L99V
VL: B2 VL with Y49R, N51S
B4: 2A8 HC Q1E+S31V+S50A+I51D+S55R+S56G+K99V/LC D1S+I2Y+A13S+S21T+R28P+N29K+Y48F+N51S+E80M+D91L+D92S+V94T+V96W (Fab, V domains shown)
VH: B1 VH with Q1E, S31V, D35S, S50A, I51D, S56G, L99V
VL: B2 VL with N51S
B5: 2A8 HC Q1E+R30S+S35D+S55R+S56G+K99L/LC D1S+I2Y+A13S+S21T+R28P+Y48F+N51V+E80M+D91W (Fab, V domains shown)
VH: B1 VH with Q1E, R30S, S56G
VL: B2 VL with K29N, N51V, L91W, S92D, T94V, W96V
B6: 2A8 HC Q1E+R30S+S35D+S55R+S56G+K99L/LC D1S+I2Y+A13S+S21T+R28P+Y48F+N51V+E80M+S89A+D91W+D92S+G93S+V94T (Fab, V domains shown)
VH: B1 VH with Q1E, R30S, S56G
VL: B2 VL with K29N, N51V, S89A, L91W, G93S, W96V
B7: 2A8 HC S35D+S55R+K99L/LC D1S+I2Y+A13S+S21T+R28P+N29K+Y48F+N51V+E80M+S89A+D91W+D92S+G93S+V94T (Fab, V domains shown)
VH: B1 VH
VL: B2 VL with N51V, S89A, L91W, G93S, W96V
B8: 2A8 HC Q1E+S31V+S50A+I51D+S55R+S56G+K99V/LC D1S+I2Y+A13S+S21T+R28P+N29K+Y48F+E80M+D91L+D92S+V94T+V96W (Fab, V domains shown)
VH: B1 VH with Q1E, S31V, D35S, S50A, I51D, S56G, L99V
VL: B2 VL
B9: 2A8 HC Q1E+R30S+S35D+S55R+S56G+K99L/LC D1S+I2Y+A13S+S21T+R28P+N29K+Y48F+N51V+E80M+D91W (Fab, V domains shown)
VH: B1 VH with Q1E, R30S, S56G
VL: B2 VL with N51V, L91W, S92D, T94V, W96V
B10: 2A8 HC S35D+S55R+K99L/LC Y48F+N51V+D91W+G93S (Fab, V domains shown)
VH: B1 VH
VL: B1 VL with K29N, G93S
B11: 2A8 HC S35D+S55R+K99L/LC Y48F+N51V+D91W+V94T (Fab, V domains shown)
VH: B1 VH
VL: B1 VL with K29N, V94T
B12: 2A8 HC S35D+S55R+S56G+K99L/LC Y48F+N51V+D91W (Fab, V domains shown)
VH: B1 VH with S56G
VL: B1 VL with K29N
B13: 2A8 HC S35D+S55R+K99L/LC S21T+Y48F+N51V+D91W (Fab, V domains shown)
VH: B1 VH
VL: B1 VL with S21T, K29N
B14: 2A8 HC S35D+S55R+K99L/LC Y48F+N51V+E80M+D91W (Fab, V domains shown)
VH: B1 VH
VL: B1 VL with K29N, E80M
B15: 2A8 HC S35D+S55R+K99L/LC Y48F+N51V+D91W+D92S (Fab, V domains shown)
VH: B1 VH
VL: B1 VL with K29N, D92S
B16: 2A8 HC S35D+S56G+K99L/LC Y48F+D91L+V96W (Fab, V domains shown)
VH: B1 VH with R55S, S56G
VL: B1 VL with K29N, V51N, W91L, V96W
B17: 2A8 HC S35D+S55R+K99L/LC Y48F+N51V+S89A+D91W (Fab, V domains shown)
VH: B1 VH
VL: B1 VL with K29N, S89A
B18: 2A8 HC S35D+S55R+K99L/LC R28P+Y48F+N51V+D91W (Fab, V domains shown)
VH: B1 VH
VL: B1 VL with R28P, K29N
B19: 2A8 HC S35D+S55R+K99L/LC Y48F+N51V+S89A+D91W+D92S+G93S+V94T+P95A (Fab, V domains shown)
VH: B1 VH
VL: B1 VL with K29N, S89A, D92S, G93S, V94T, P95A
B20: 2A8 HC S35D+S55R+K99L/LC Y48F+N51V+D91W+P95V (Fab, V domains shown)
VH: B1 VH
VL: B1 VL with K29N, P95V
B21: 2A8 HC S35L+S54F+K99V/LC Y48F+D91K (Fab, V domains shown)
VH: B1 VH with D35L, S54F, R55S, L99V
VL: B1 VL with K29N, V51N, W91K
B22: 4B7 HC_D62I (Fab, V domains shown)
VH: QVQLQQSGPGLVKPSQTLSLTCAISGDSVSSNSAAWSWIRQSPGRGLEWLGIIYKRSKWYNIYAVSVKSRITINPDTSKNQFSLQLNSVTPEDTAVYYCARWHSDKHWGFDYWGQGTLVTVSS
VL: DIVMTQSPLSLPVTPGEPASISCRSSQSLVFSDGNTYLNWYLQKPGQSPQLLIYKGSNRASGVPDRFSGSGSGTDFTLKISRVEAEDVGVYYCQQYDSYPLTFGQGTKVEIKR
B23: 4B7 HC_S57R (Fab, V domains shown)
VH: B22 VH with S57R, I62D
VL: B22 VL
B24: 4B7 HC_H107M LC_F31I (Fab, V domains shown)
VH: B22 VH with I62D, H107M
VL: B22 VL with F31I
B25: 4B7 HC_D62Q (Fab, V domains shown)
VH: B22 VH with I62Q
VL: B22 VL
B26: 4B7 HC_N32D (Fab, V domains shown)
VH: B22 VH with N32D, I62D
VL: B22 VL
B27: 4B7 HC_G109A LC_D33R (Fab, V domains shown)
VH: B22 VH with I62D, G109A
VL: B22 VL with D33R
B28: 4B7 HC_D62S (Fab, V domains shown)
VH: B22 VH with I62S
VL: B22 VL
B29: 4B7 HC_D62L (Fab, V domains shown)
VH: B22 VH with I62L
VL: B22 VL
B30: 4B7 HC_D62V (Fab, V domains shown)
VH: B22 VH with I62V
VL: B22 VL
B31: 4B7 HC_H103D (Fab, V domains shown)
VH: B22 VH with I62D, H103D
VL: B22 VL
B32: 4B7 HC_K58M HC_D62N (Fab, V domains shown)
VH: B22 VH with K58M, I62N
VL: B22 VL
B33: 4B7 HC_D62N (Fab, V domains shown)
VH: B22 VH with I62N
VL: B22 VL
B34: 4B7 HC_H107M (Fab, V domains shown)
VH: B22 VH with I62D, H107M
VL: B22 VL
B35: 4B7 HC_H103G (Fab, V domains shown)
VH: B22 VH with I62D, H103G
VL: B22 VL

Each binder was assayed against T1, human tissue factor pathway inhibitor … (assay: competitive ELISA).
For B1, the variant/HC_K99L was 20 ratio. B2 was tested, and the variant/HC_K99L was 18 ratio. B3 showed a variant/HC_K99L of 2.2 ratio. B4 gave a variant/HC_K99L of 11.4 ratio. Work on B5 yielded a variant/HC_K99L of 18.7 ratio. With B6 the variant/HC_K99L was 18.8 ratio. With B7 the variant/HC_K99L was 21.4 ratio. Binder B8 has a variant/HC_K99L of 9.8 ratio. In the case of B9, the variant/HC_K99L is reported as 19.8 ratio. For B10, the variant/HC_K99L was 17 ratio. B11 showed a variant/HC_K99L of 22.8 ratio. For B12, the variant/HC_K99L was 21.4 ratio. With B13 the variant/HC_K99L was 19.5 ratio. B14 showed a variant/HC_K99L of 23.1 ratio. Work on B15 yielded a variant/HC_K99L of 23.9 ratio. B16 was tested, and the variant/HC_K99L was 17.8 ratio. B17 gave a variant/HC_K99L of 18.6 ratio. Work on B18 yielded a variant/HC_K99L of 22 ratio. Work on B19 yielded a variant/HC_K99L of 10.9 ratio. Binder B20 has a variant/HC_K99L of 15.7 ratio. B21 was tested, and the variant/HC_K99L was 5 ratio.

These binders were tested against T2, mouse tissue factor pathway inhibitor … (assay: competitive ELISA).
Work on B1 yielded a variant/HC_K99L of 18.9 ratio. Work on B2 yielded a variant/HC_K99L of 15.4 ratio. B3 showed a variant/HC_K99L of 2.4 ratio. For B4, the variant/HC_K99L was 7.1 ratio. In the case of B5, the variant/HC_K99L is reported as 15.1 ratio. With B6 the variant/HC_K99L was 12.3 ratio. With B7 the variant/HC_K99L was 16.8 ratio. B8 gave a variant/HC_K99L of 5.9 ratio. In the case of B9, the variant/HC_K99L is reported as 15.5 ratio. With B10 the variant/HC_K99L was 16.5 ratio. For B11, the variant/HC_K99L was 19.9 ratio. In the case of B12, the variant/HC_K99L is reported as 18.7 ratio. For B13, the variant/HC_K99L was 18.8 ratio. With B14 the variant/HC_K99L was 21.2 ratio. With B15 the variant/HC_K99L was 22.8 ratio. In the case of B16, the variant/HC_K99L is reported as 16.9 ratio. Binder B17 has a variant/HC_K99L of 18.2 ratio. In the case of B18, the variant/HC_K99L is reported as 23.2 ratio. With B19 the variant/HC_K99L was 9 ratio. In the case of B20, the variant/HC_K99L is reported as 13.7 ratio. B21 was tested, and the variant/HC_K99L was 3.1 ratio.

Target: T1, human tissue factor pathway inhibitor …
Experiment: competitive ELISA
Remark: another data set of the same source
In the case of B22, the variant/wild-type is reported as 9.8 ratio. With B23 the variant/wild-type was 2 ratio. Work on B24 yielded a variant/wild-type of 1.7 ratio. With B25 the variant/wild-type was 20.6 ratio. With B26 the variant/wild-type was 3.8 ratio. For B27, the variant/wild-type was 3.8 ratio. In the case of B28, the variant/wild-type is reported as 29.3 ratio. B29 was tested, and the variant/wild-type was 6.8 ratio. B30 was tested, and the variant/wild-type was 31.9 ratio. With B31 the variant/wild-type was 2.4 ratio. Work on B32 yielded a variant/wild-type of 6.6 ratio. B33 showed a variant/wild-type of 52.3 ratio. For B34, the variant/wild-type was 8.1 ratio. For B35, the variant/wild-type was 1.4 ratio.

The binders below were run against T2, mouse tissue factor pathway inhibitor … (assay: equilibrium ELISA).
For B22, the variant/wild-type was 44.4 ratio. B24 showed a variant/wild-type of 9.2 ratio. With B25 the variant/wild-type was 142 ratio. In the case of B26, the variant/wild-type is reported as 6 ratio. B27 was tested, and the variant/wild-type was 8 ratio. B28 showed a variant/wild-type of 146 ratio. Binder B29 has a variant/wild-type of 22.9 ratio. Binder B30 has a variant/wild-type of 95 ratio. Binder B31 has a variant/wild-type of 12.9 ratio. In the case of B32, the variant/wild-type is reported as 15.2 ratio. B33 gave a variant/wild-type of 146 ratio. B34 gave a variant/wild-type of 5.6 ratio. Work on B35 yielded a variant/wild-type of 10.7 ratio.
